Test results as given in US20140017242A1, “ANTI-BRADYKININ B2 RECEPTOR (BKB2R) MONOCLONAL ANTIBODY” (Diamedica, Inc., priority 2010, published 2014).

Experiments:
Type in all cases: in vivo, rat
ZDF fa/fa rats [1] = assay: 21-day ZDF fa/fa study: oral glucose tolerance test (blood glucose, plasma insulin); conditions: day 21
Description: (§1) Animals. Male ZDF fa/fa rats were obtained from CRL (Kingston, N.Y.). Upon arrival, rats were seven weeks of age. The rats were housed individually per cage in a room with a photo cycle of 12 hours of light and 12 hours of dark and an ambient temperature of 70-72° F. and fed on regular rodent diet and water ad libitum. At the age of eleven weeks, rats were divided into six groups (Table 5) of eight rats per group based on fasting blood glucose levels. A sub-group of four rats per group was maintained in parallel to the main groups and was dosed similarly for twenty-one days for a hyperinsulinemic-euglycemic clamp study. […]
(§2) An oral glucose tolerance test (OGTT) was performed on Day 0, 7, 14 and 21 for each group of the study. Plasma samples were collected at each time point during OGTT to also measure insulin levels. Body weight, food and water intake were measured twice a week. Blood pressure and heart rates were monitored on Day 0, 7, 14 and 21 using a non-invasive tail cuff method (with five readings per rat taken and then averaged). Fasting serum samples were collected on Day 0, 7, 14 and 21 before OGTT for determination of triglyceride and total cholesterol level. Urine samples were collected on Day 7 and 14 for the determination of glycosuria. Glycated (Glycosylated) hemoglobin (HbA1c) was measured at the end of the study. Assay kits for these studies were as presented in Table 6, and were used according to the suppliers' instructions.
OGTTs were performed on Day 0, 7, 14 and Day 21. Rats were fasted overnight and fasted blood glucose levels were measured (t=0 min), and then each rat was given a single 1.5 ml dose of glucose solution (2 g/kg body weight of D-(+)-glucose (G7528, Sigma) solubilized in deionized water) administered by oral gavage. […] At each time point of an OGGT approximately 50-60 μl of blood were collected and processed for plasma to measure insulin levels.
Plasma Collection. On days 0, 7, 14 and 21 during an OGTT test, blood samples were collected from the rats at each time point (0, 15, 30, 60, 90 and 120 minutes) into tubes containing lithium heparin (BD Biosciences, USA) by tail nip and kept on ice. The samples were then centrifuged at 4° C. for plasma separation and the plasma supernatants were transferred into 0.5 ml Eppendorf™ tubes by pipette and stored at −80° C. for the analysis of insulin levels.

ZDF fa/fa rats [2] = assay: 21-day ZDF fa/fa study: serum total cholesterol and triglyceride; conditions: day 21
Description: as §1, §2
The mean change in fasting blood glucose (mg/dL), serum cholesterol (mg/dL) and systolic blood pressure (mm Hg) from baseline (Day 0) to Day 21 was compared between the high-dose (5F12G1, 0.2 mg/kg) and negative control (MG2b-57, 0.2 mg/kg) groups using an analysis of covariance to adjust for baseline levels. The mean HbA1c percentage in high-dose (5F12G1, 0.2 mg/kg) rats was compared to the mean HbA1c percentage for negative control (MG2b-57, 0.2 mg/kg) rats using an unequal-variance, independent two-sample t-test. A significance level of a=0.05 was used for all tests, and all analyses were conducted using SAS statistical software (vs. 9.2, Cary, N.C., U.S.A.).

ZDF fa/fa rats [3] = assay: 21-day ZDF fa/fa study: hyperinsulinemic-euglycemic clamp in sub-groups; conditions: after 21 days
Description: Animals. Male ZDF fa/fa rats were obtained from CRL (Kingston, N.Y.). Upon arrival, rats were seven weeks of age. The rats were housed individually per cage in a room with a photo cycle of 12 hours of light and 12 hours of dark and an ambient temperature of 70-72° F. and fed on regular rodent diet and water ad libitum. At the age of eleven weeks, rats were divided into six groups (Table 5) of eight rats per group based on fasting blood glucose levels. A sub-group of four rats per group was maintained in parallel to the main groups and was dosed similarly for twenty-one days for a hyperinsulinemic-euglycemic clamp study.
The test compounds 5F12G1 and MG2b-57 were administered subcutaneously once every three days.

B1: 5F12G1: murine monoclonal anti-BKB2R antibody (IgG2b,κ), VH comprising SEQ ID NO:1, VL comprising SEQ ID NO:2 (antibody, listed as Mus musculus, V domains shown)
VH: EVKLEESGGGLVQPGGSMKLSCVVSGFTFSDYWMSWVRHSPEMGLEWVAEIRLKSDNYATHYAESVKGRFTISRDDSKSRLYLQINSLRGEDTGIYYCTRDYYAMEYWGQGTSVTVSS
VL: DVVMTQTPLSLPVSLGDQASISCRSSQTIVHSNGKTYLEWYLQKPGQSPKLLIYKVSNRFSGVPDRFSGSGSGTEFTLKISRVETEDLGVYYCFQASHVPYTFGGGTKLEIK
- blood glucose level at the start of the OGTT (ZDF fa/fa rats [1]; 0.008 mg/kg s.c. every 3 days): 190 ± 40 mg/dL
- fasting insulin level (ZDF fa/fa rats [1]; 0.008 mg/kg s.c. every 3 days): 14 ± 3 ng/mL
- insulin level at 15 minutes of the OGTT (ZDF fa/fa rats [1]; 0.008 mg/kg s.c. every 3 days): 24 ± 6 ng/mL
- blood glucose level at 30 minutes of the OGTT (peak) (ZDF fa/fa rats [1]; 0.04 mg/kg s.c. every 3 days): 355 mg/dL
- blood glucose level at the start of the OGTT (ZDF fa/fa rats [1]; 0.04 mg/kg s.c. every 3 days): 163 ± 40 mg/dL
- fasting insulin level (ZDF fa/fa rats [1]; 0.04 mg/kg s.c. every 3 days): 12 ± 3 ng/mL
- insulin level at 15 minutes of the OGTT (ZDF fa/fa rats [1]; 0.04 mg/kg s.c. every 3 days): 26 ± 3 ng/mL
- AUC of blood glucose during OGTT (ZDF fa/fa rats [1]; 0.2 mg/kg s.c. every 3 days): 33241.13 ± 3910.62 mg/dL (min)
- blood glucose level at 30 minutes of the OGTT (peak) (ZDF fa/fa rats [1]; 0.2 mg/kg s.c. every 3 days): 312 mg/dL
- blood glucose level at the start of the OGTT (ZDF fa/fa rats [1]; 0.2 mg/kg s.c. every 3 days): 150 ± 20 mg/dL
- fasting insulin level (ZDF fa/fa rats [1]; 0.2 mg/kg s.c. every 3 days): 17 ± 5 ng/mL
- insulin level at 15 minutes of the OGTT (ZDF fa/fa rats [1]; 0.2 mg/kg s.c. every 3 days): 30 ± 7 ng/mL
- blood glucose level at 30 minutes of the OGTT (peak) (ZDF fa/fa rats [1]; 0.008 s.c. every 3 days): 400 mg/dL
- serum cholesterol (ZDF fa/fa rats [2]; 0.008 mg/kg s.c. every 3 days): 167 ± 7 mg/dL
- serum cholesterol (ZDF fa/fa rats [2]; 0.04 mg/kg s.c. every 3 days): 162 ± 18 mg/dL
- decrease of serum cholesterol from baseline (ZDF fa/fa rats [2]; 0.2 mg/kg s.c. every 3 days): 12 ± 8 mg/dL
- serum cholesterol (ZDF fa/fa rats [2]; 0.2 mg/kg s.c. every 3 days): 145 ± 26 mg/dL
- AUC-GIR (glucose infusion rate) in the clamp (ZDF fa/fa rats [3]; 0.04 mg/kg s.c. every 3 days): significantly higher AUC-GIR
- AUC-GIR (glucose infusion rate) in the clamp (ZDF fa/fa rats [3]; 0.2 mg/kg s.c. every 3 days): significantly higher AUC-GIR
